Test results reported in paper doi:10.1101/2025.09.11.675549, “CCDC103-mediated assembly of the R2C complex links RUVBL1-RUVBL2 to Primary Ciliary Dyskinesia” (bioRxiv, 2025).

How the values were obtained:
[1] = molecular target: T1, RUVBL1-RUVBL2-strep complex (6XHIS-RUVBL1-RUVBL2-strep) (human, UniProt Q9Y265 1-456; Q9Y230 1-463); assay: pull-down; RUVBL1-RUVBL2-strep held on Streptavidin Mag Sepharose beads, full-length CCDC103 as prey; 50mM HEPES pH 7.5, 140mM NaCl, 0.001% Tween 20; eluted with 2.5mM desthiobiotin; SDS-PAGE; settings: both partners purified
T1 construct: RUVBL1 (RuvB like 1), human, UniProt Q9Y265; RUVBL2 (RuvB like 2), human, UniProt Q9Y230; also called RUVBL1-RUVBL2 complex; hetero-hexameric ring; source: E. coli Rosetta (DE3) pLysS (pRSETA and pCDF Duet 1), purified by a previously defined protocol; not shown: Strep, C-terminal, kept; copies: 3 + 3
T1 sequence (Q9Y265 whole entry, chain 1 of 2): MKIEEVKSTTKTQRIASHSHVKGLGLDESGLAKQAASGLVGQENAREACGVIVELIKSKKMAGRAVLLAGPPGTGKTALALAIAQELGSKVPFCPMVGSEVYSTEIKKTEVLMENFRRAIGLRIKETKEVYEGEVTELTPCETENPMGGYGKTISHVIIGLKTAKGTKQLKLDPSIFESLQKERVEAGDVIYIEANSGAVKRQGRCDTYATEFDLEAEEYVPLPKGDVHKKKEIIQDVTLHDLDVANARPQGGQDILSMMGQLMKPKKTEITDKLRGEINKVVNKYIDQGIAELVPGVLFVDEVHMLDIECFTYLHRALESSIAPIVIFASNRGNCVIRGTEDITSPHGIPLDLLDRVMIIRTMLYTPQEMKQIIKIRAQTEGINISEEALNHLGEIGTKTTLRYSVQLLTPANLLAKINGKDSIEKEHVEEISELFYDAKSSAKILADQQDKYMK
T1 sequence (Q9Y230 whole entry, chain 2 of 2): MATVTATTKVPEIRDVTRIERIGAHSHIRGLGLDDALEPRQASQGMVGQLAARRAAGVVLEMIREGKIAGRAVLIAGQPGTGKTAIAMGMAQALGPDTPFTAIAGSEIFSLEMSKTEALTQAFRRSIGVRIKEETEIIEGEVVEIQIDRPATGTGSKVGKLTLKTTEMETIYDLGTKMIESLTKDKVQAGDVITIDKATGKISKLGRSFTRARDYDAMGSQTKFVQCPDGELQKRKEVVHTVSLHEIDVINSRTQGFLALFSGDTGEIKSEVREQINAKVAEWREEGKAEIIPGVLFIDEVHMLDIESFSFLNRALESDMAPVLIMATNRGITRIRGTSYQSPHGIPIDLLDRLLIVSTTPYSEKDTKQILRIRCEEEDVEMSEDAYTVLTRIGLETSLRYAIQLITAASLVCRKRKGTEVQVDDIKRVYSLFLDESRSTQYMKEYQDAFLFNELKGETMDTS

[2] = molecular target: T1, RUVBL1-RUVBL2-strep complex …; assay: pull-down; 10 uM GST-CCDC103 RBD and 10 uM RUVBL1-RUVBL2 on GST beads; 50mM HEPES pH 7.5, 140mM NaCl, 0.001% Tween 20; 45 min at 4 C; three washes; SDS-PAGE; settings: both partners purified

Row | binding result [1] | binding result [2] | Binder
1 | binds | – | full-length CCDC103 (natural protein, human, UniProt Q8IW40 1-242, looked up, CCDC103 (DNAAF19), human, UniProt Q8IW40, full length; or Sf9, Flag-tagged) stood in the strep pull-down, so the tag is left open; also called CCDC103FL; DNAAF19) MERNDIINFKALEKELQAALTADEKYKRENAAKLRAVEQRVASYEEFRGIVLASHLKPLERKDKMGGKRTVPWNCHTIQGRTFQDVATEISPEKAPLQPETSADFYRDWRRHLPSGPERYQALLQLGGPRLGCLFQTDVGFGLLGELLVALADHVGPADRAAVLGILCSLASTGRFTLNLSLLSRAERESCKGLFQKLQAMGNPRSVKEGLSWEEQGLEEQSGGLQEEERLLQELLELYQVD
2 | – | binds | GST-tagged RBD domain of CCDC103 (domain or fragment, human, UniProt Q8IW40 100-242, looked up, CCDC103, human, UniProt Q8IW40, RBD without the first 99 residues (lacks N-terminal 1-99); also called GST-CCDC103 RBD; source: E. coli Rosetta (DE3) pLysS (pGEX6-P1), purified (glutathione Sepharose 4B); not shown: GST, N-terminal, kept) ETSADFYRDWRRHLPSGPERYQALLQLGGPRLGCLFQTDVGFGLLGELLVALADHVGPADRAAVLGILCSLASTGRFTLNLSLLSRAERESCKGLFQKLQAMGNPRSVKEGLSWEEQGLEEQSGGLQEEERLLQELLELYQVD
